In PMC10612264, “A novel transcriptional repressor specifically regulates xylanase gene 1 in Trichoderma reesei”:
Where a chain is given by its changes, count along the chain named.

T1: XTR1 DBD (Trichoderma reesei QM9414) (UniProt G0RH11)
T1 sequence: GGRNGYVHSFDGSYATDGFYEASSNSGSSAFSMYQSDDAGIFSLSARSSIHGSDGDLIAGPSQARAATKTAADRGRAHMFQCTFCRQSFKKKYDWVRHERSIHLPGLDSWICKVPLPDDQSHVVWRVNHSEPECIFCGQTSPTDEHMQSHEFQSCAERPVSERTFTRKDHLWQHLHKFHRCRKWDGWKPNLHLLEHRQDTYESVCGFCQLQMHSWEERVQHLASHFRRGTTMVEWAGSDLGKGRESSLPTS

T2: XYR1 DBD (Trichoderma reesei) (UniProt G0RLE8)
T2 sequence: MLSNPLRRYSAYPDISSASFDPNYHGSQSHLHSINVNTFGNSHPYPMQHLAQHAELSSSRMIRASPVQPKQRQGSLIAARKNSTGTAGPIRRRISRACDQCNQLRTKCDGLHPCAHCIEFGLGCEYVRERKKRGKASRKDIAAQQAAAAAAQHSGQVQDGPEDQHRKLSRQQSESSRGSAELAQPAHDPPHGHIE

T3: XTR1 DBD (Trichoderma reesei QM9414, UniProt G0RH11 285-535)
T3 sequence: T1 sequence

B1: Pxyn1 (-321 to -217) GG2-3 to AA (dsDNA)
DNA 1: AACTAGGACCGGCTTGTGTCGATATTGCGGGTGGCGTTCAATCTATTCCGGCACTCCTATGCCGTTTGATCCGATACCTAAAGGGCGTGCTTTAGGCAAAATGCC
DNA 2: GGCATTTTGCCTAAAGCACGCCCTTTAGGTATCGGATCAAACGGCATAGGAGTGCCGGAATAGATTGAACGCCACCCGCAATATCGACACAAGCCGGTCCTAGTT
B2: Pxyn1 (-321 to -217) GGG5-7 to AAA (dsDNA)
DNA 1: B1 DNA 1 with A80G, A81G, G83A, G84A, G85A
DNA 2: B1 DNA 2 with C21T, C22T, C23T, T25C, T26C
B3: Pxyn1 (-321 to -217) CGTGC8-12 to TTGTT (dsDNA)
DNA 1: B1 DNA 1 with A80G, A81G, C86T, G87T, T88G, G89T, C90T
DNA 2: B1 DNA 2 with G16A, C17A, A18C, C19A, G20A, T25C, T26C
B4: Pxyn1 (-321 to -217) 3' TTT to AAA (dsDNA)
DNA 1: B1 DNA 1 with A80G, A81G, T91G, T92G, T93G
DNA 2: B1 DNA 2 with A13C, A14C, A15C, T25C, T26C

Legend:
[1] = target: T1, XTR1 DBD (Trichoderma reesei QM9414); assay: EMSA; details: EMSA: 10 mM Tris pH 7.5, 50 mM KCl, 1 mM DTT, 150 ng DNA, 20 C 30 min, 6% native PAGE at 4 C in 0.5x TBE, EtBr; footprinting: 180 ng DNA, 25 C 30 min
[2] = target: T2, XYR1 DBD (Trichoderma reesei); assay: EMSA; details: EMSA: 10 mM Tris pH 7.5, 50 mM KCl, 1 mM DTT, 150 ng DNA, 20 C 30 min, 6% native PAGE at 4 C in 0.5x TBE, EtBr; footprinting: 180 ng DNA, 25 C 30 min
[3] = target: T3, XTR1 DBD; assay: EMSA; EMSA: 10 mM Tris pH 7.5, 50 mM KCl, 1 mM DTT, 150 ng DNA, 20 C 30 min, 6% native PAGE at 4 C in 0.5x TBE, EtBr; footprinting: 180 ng DNA, 25 C 30 min; details: protein: recombinant; tags: His tag (pET22b NdeI/XhoI, Ni-NTA); label: none (EtBr stain)
[4] = target: T3, XTR1 DBD; assay: EMSA; binding increased vs wild type; EMSA: 10 mM Tris pH 7.5, 50 mM KCl, 1 mM DTT, 150 ng DNA, 20 C 30 min, 6% native PAGE at 4 C in 0.5x TBE, EtBr; footprinting: 180 ng DNA, 25 C 30 min; details: protein: recombinant; tags: His tag (pET22b NdeI/XhoI, Ni-NTA); label: none (EtBr stain)

Row | Molecule | binding [1] | binding result [3] | other results
1 | AAGCTTCGAGGATACTGTACGAGCCGCTTTCAACCTCACTTGATGATGTCTGAGTTTCATCAAGAGAATTGAAGTCAAAGCTCAAATCATGATGTGAAGAGGTTTTGAATGTGGAAGAATTCTGCATA (double strand) [Pxyn1 (-217 to -91)] | no binding |  | 
2 | AACTAGGACCGGCTTGTGTCGATATTGCGGGTGGCGTTCAATCTATTCCGGCACTCCTATGCCGTTTGATCCGATACCTGGAGGGCGTGCTTTAGGCAAAATGCCAAGCTTCGAGGATACTGTACGAGCCGCTTTCAACCTCACTTGATGATGTCTGAGTTTCATCAAGAGAATTGAAGTCAAAGCTCAAATCATGATGTGAAGAGGTTTTGAATGTGGAAGAATTCTGCATA (double strand) [Pxyn1 (-321 to -91)] | binds |  | 
3 | AACTAGGACCGGCTTGTGTCGATATTGCGGGTGGCGTTCAATCTATTCCGGCACTCCTATGCCGTTTGATCCGATACCTGGAGGGCGTGCTTTAGGCAAAATGCC (double strand) [Pxyn1 (-321 to -217)] | binds |  | binding [2]: binds
4 | B1 |  | binds | 
5 | B2 |  | binds | 
6 | B3 |  | no binding | 
7 | B4 |  |  | binding result [4]: binds
